Laboratory results as given in doi:10.1101/2025.08.27.672506.

Experiments:
[1] = molecular target: wild-type ectodomain of HA from A/gull/Maryland/704/1977 (H13N6) (influenza A virus A/gull/Maryland/704/1977 (H13N6)); experiment: SEC
[2] = molecular target: wild-type H1/Cal09 HA ectodomain with the Foldon trimerization tag (influenza A virus A/California/04/2009 (H1N1) | T4); experiment: SEC
[3] = molecular target: wild-type H1/Cal09 HA ectodomain with the Foldon trimerization tag (influenza A virus A/California/04/2009 (H1N1) | T4); experiment: cryo-EM 2D classification
[4] = molecular target: wild-type H1/Mal07 HA ectodomain with the Foldon tag (influenza A virus A/Malaysia/1706215/2007 (H1N1) | T4); experiment: SEC
[5] = molecular target: wild-type ectodomain of HA from /turkey/Ontario/6118/1968 (H8N4) (influenza A virus /turkey/Ontario/6118/1968 (H8N4)); experiment: SEC
[6] = molecular target: wild-type ectodomain of HA from A/swine/Hong Kong/2106/98 (H9N2) (influenza A virus A/swine/Hong Kong/2106/98 (H9N2)); experiment: SEC
[7] = molecular target: wild-type H9/HK98 HA ectodomain with the Foldon tag (influenza A virus A/swine/Hong Kong/2106/98 (H9N2) | T4); experiment: SEC

Substance: wild-type ectodomain of HA from A/gull/Maryland/704/1977 (H13N6) (domain or fragment)
- stoichiometry N [1]: 3

Substance: wild-type H1/Cal09 HA ectodomain with the Foldon trimerization tag
- stoichiometry N [2]: 3
- stoichiometry N [3]: 3

Substance: wild-type H1/Mal07 HA ectodomain with the Foldon tag
- stoichiometry N [4]: 3

Substance: wild-type ectodomain of HA from /turkey/Ontario/6118/1968 (H8N4) (domain or fragment)
- stoichiometry N [5]: 3

Substance: wild-type ectodomain of HA from A/swine/Hong Kong/2106/98 (H9N2) (domain or fragment)
- stoichiometry N [6]: 3

Substance: wild-type H9/HK98 HA ectodomain with the Foldon tag
- stoichiometry N [7]: 3
